Measured values from patent US20210317225A1 (Genmab, published 2021).

T1: Human CD137 shuffle 5 (amino acids 48-88 replaced by African elephant CD137) (human, amino acids 48-88 from African …, UniProt Q07011 24-255)
T1 construct: also called shuffle construct 5
T1 chain: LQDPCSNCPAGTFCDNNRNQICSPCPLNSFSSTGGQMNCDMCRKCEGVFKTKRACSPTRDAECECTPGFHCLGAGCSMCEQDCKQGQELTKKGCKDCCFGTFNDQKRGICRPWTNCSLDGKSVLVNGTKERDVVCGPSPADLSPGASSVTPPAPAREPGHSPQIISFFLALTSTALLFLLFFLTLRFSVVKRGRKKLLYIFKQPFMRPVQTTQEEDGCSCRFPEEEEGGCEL

T2: Human CD137 shuffle 4 (amino acids 89-114 replaced by wild boar CD137) (human, amino acids 89-114 from wild boar, UniProt Q07011 24-255)
T2 construct: also called shuffle construct 4
T2 chain: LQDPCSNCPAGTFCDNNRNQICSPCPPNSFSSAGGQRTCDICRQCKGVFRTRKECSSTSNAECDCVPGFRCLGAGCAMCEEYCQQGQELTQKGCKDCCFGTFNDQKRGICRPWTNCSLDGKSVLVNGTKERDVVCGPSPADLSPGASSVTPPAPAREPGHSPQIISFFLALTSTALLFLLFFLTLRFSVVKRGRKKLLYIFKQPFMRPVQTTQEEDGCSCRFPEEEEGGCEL

T3: Human CD137 shuffle 3 (amino acids 115-138 replaced by wild boar CD137) (human, amino acids 115-138 from wild …, UniProt Q07011 24-255)
T3 construct: also called shuffle construct 3
T3 chain: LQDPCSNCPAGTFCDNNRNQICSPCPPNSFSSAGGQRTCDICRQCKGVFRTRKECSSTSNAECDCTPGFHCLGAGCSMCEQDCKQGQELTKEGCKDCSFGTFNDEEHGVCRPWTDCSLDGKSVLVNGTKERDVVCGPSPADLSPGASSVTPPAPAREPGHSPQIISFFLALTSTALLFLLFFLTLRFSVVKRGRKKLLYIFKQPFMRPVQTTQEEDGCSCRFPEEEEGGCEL

T4: Human CD137 shuffle 1 (amino acids 162-186 replaced by wild boar CD137) (human, amino acids 162-186 from wild …, UniProt Q07011 24-255)
T4 construct: also called shuffle construct 1
T4 chain: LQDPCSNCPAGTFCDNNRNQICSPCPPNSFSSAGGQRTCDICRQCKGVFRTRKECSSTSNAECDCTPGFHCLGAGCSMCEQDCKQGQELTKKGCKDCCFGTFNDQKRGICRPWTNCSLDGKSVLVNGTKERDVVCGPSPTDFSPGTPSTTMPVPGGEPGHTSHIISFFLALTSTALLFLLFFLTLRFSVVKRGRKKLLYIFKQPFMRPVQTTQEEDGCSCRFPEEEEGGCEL

T5: Human CD137 shuffle 2 (amino acids 139-161 replaced by wild boar CD137) (human, amino acids 139-161 from wild …, UniProt Q07011 24-255)
T5 construct: also called shuffle construct 2
T5 chain: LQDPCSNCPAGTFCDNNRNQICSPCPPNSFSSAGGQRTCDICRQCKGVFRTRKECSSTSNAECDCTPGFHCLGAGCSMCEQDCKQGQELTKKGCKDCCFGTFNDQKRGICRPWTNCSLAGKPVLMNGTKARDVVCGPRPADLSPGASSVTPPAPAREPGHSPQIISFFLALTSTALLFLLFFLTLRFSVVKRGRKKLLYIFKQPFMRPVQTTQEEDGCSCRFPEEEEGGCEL


Experiments:
Human CD137 (TNR9_Human) [1] = target: T6, Human CD137 (TNR9_Human) (human, UniProt Q07011 24-255); assay: flow cytometry, HEK293-T17 cells transiently transfected with human CD137, antibody at 1 µg/mL, APC-labeled F(ab')2 secondary
T6 construct: Full-length human CD137 expressed on HEK293T-17, NF-kB/293/GFP-Luc or K562 cells, or native on T cells; also called hCD137 wt; 4-1BB
T6 sequence (Q07011 24-255): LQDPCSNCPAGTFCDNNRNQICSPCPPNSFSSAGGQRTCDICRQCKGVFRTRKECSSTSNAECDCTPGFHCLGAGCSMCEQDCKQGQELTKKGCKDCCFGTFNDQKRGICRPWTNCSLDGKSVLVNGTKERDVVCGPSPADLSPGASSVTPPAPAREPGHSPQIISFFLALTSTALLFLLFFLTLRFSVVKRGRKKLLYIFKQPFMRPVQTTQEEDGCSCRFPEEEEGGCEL
Procedure: FIG. 4: Binding of CD137 antibody clones to CD137 shuffle constructs expressed on HEK293-T17 cells. HEK293-T17 cells were transfected with the CD137 shuffle constructs, and with human CD137 (hCD137 wt), African elephant of wild boar CD137, as indicated. Binding of the different CD137 antibody clones to these constructs expressed on HEK293-T17 cells was measured by flow cytometry. Staining with polyclonal anti-CD137 antibody is shown as a control.
(§1) 3×10⁶ HEK293T-17 cells were seeded in T75 culture flasks (Greiner Bio-One, cat. no. 658175) in 20 mL RPMI 1640 GlutaMAX medium containing 10% FCS (Biochrom, cat. no. S 0115). After O/N incubation, cells were transiently […] with expression vectors encoding the shuffle constructs or the wild boar, African elephant or human CD137 downstream of a constitutively active human elongation factor-1 alpha (EF-1 alpha) promotor using TransIT®-LT1 Transfection Reagent, Mirus Bio (VWR International, cat. no. 731-0029), according to the manufacturer's instructions. The next day, cells were harvested using 1.5 mL Accutase (Sigma Aldrich, cat. no. A6964) (incubation at 37° C. for 5 min.) and flow cytometry was performed, essentially as described in Example 4, to measure surface expression of the shuffle constructs and the human, African elephant and wild boar CD137 and to measure binding of the antibody clones to the different shuffle constructs. To measure cell surface expression of the constructs, transduced cells were incubated with 1 μg/mL goat polyclonal anti-human CD137 (R&D Systems, cat. no. AF838) in FACS buffer (D-PBS supplemented with 5 mM EDTA [Sigma Aldrich, cat. no. 03690] and 5% (v/v) fetal bovine serum [FBS, Biochrom, cat. no. S 0115]) (4° C., 20 min.), followed by incubation with APC-labeled anti-goat IgG (H+L) (R&D Systems, cat. no. F0108) (4° C., 20 min.). Binding of the different CD137 antibody clones to cells expressing the shuffle constructs was measured by incubation of the transduced cells with 1 μg/mL of the antibody clones, followed by APC-labeled AffiniPure F(ab′)2 Fragment (1:50 final dilution; Jackson, cat. no. 109-136-127).

[2] = target: T1, Human CD137 shuffle 5 (amino acids …); assay: flow cytometry on transfected HEK293T-17 cells, 1 µg/mL antibody
Procedure: as §1

[3] = target: T2, Human CD137 shuffle 4 (amino acids …); assay: as above
Procedure: as §1

[4] = target: T3, Human CD137 shuffle 3 (amino acids …); assay: as above
Procedure: as §1

[5] = target: T4, Human CD137 shuffle 1 (amino acids …); assay: as above
Procedure: as §1

[6] = target: T5, Human CD137 shuffle 2 (amino acids …); assay: as above
Procedure: as §1

Human CD40 = Human CD40 (human, UniProt P25942 21-277); assay: cell-based or functional assay
Sequence of Human CD40 (P25942 21-277): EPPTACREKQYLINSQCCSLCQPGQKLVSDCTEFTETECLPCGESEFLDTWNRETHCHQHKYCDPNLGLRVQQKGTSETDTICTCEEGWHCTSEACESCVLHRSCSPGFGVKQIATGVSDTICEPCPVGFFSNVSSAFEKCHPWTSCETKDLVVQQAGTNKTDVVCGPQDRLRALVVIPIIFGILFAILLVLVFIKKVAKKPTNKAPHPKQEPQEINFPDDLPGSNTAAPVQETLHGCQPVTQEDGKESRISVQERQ

Human CD137 (TNR9_Human) [7] = target: T6, Human CD137 (TNR9_Human); assay: cell-based or functional assay

| binding result (Human CD137 (TNR9_Human) [1]) | binding result [2] | binding result [3] | binding result [4] | binding result [5] | binding result [6] | luciferase activity (RLU) of NF-KB/293/GFP-Luc cells transduced with CD40, incubated with K562_CD137 (Human CD40) [ng/mL] | luciferase activity (RLU) of NF-KB/293/GFP-Luc cells transduced with CD137, incubated with K562_CD40 (Human CD137 (TNR9_Human) [7]) [ng/mL] | Binder |
| --- | --- | --- | --- | --- | --- | --- | --- | --- |
| binds | binds | binds | binds | binds | binds | – | – | CD137 antibody clone 001 (rabbit) (antibody, human IgG1, kappa, V domains shown, also called Clone 1; CD137 clone 001) VH: QSVEESGGRLVTPGTPLTLTCTVSGFSLSSYAVSWVRQAPGKGLEWIGVIWNNGATHYATWAKGRFTISKASTTVDLKVTSPTTEDTATYFCARSANDAWSTYSDLWGQGTLVTVSS VL: DIVMTQTPASVEAAVGGTVTIKCQASQTITNYLSWYQQKPGQPPKLLIYKASTLTSGVSSRFKGSGSGTEFTLTISDLESDDAATYYCQNYYYGSSSGYGFVFGGGTEVVVKR |
| – | – | – | – | – | – | ~100 | ~100 | CD40-001-FEALxCD137-003-FEAR (bispecific antibody, human IgG1, kappa) heavy 1: EVQLQQSGPDLVKPGASVKISCKTSGYTFTEYIMHWVKQSHGKSLEWIGGIIPNNGGTSYNQKFKDKATMTVDKSSSTGYMELRSLTSEDSAVYYCTRREVYGRNYYALDYWGQGTLVTVSSASTKGPSVFPLAPSSKSTSGGTAALGCLVKDYFPEPVTVSWNSGALTSGVHTFPAVLQSSGLYSLSSVVTVPSSSLGTQTYICNVNHKPSNTKVDKRVEPKSCDKTHTCPPCPAPEFEGGPSVFLFPPKPKDTLMISRTPEVTCVVVAVSHEDPEVKFNWYVDGVEVHNAKTKPREEQYNSTYRVVSVLTVLHQDWLNGKEYKCKVSNKALPAPIEKTISKAKGQPREPQVYTLPPSREEMTKNQVSLTCLVKGFYPSDIAVEWESNGQPENNYKTTPPVLDSDGSFLLYSKLTVDKSRWQQGNVFSCSVMHEALHNHYTQKSLSLSPGK light 1: DIQMTQTTSSLSASLGDRVTITCSASQGINNYLNWYQQKPDGTVKLLIYYTSSLHSGVPSRFSGSGSGTDYSLTISNLEPEDIATYYCQQYSNLPYTFGGGTKLEIKRTVAAPSVFIFPPSDEQLKSGTASVVCLLNNFYPREAKVQWKVDNALQSGNSQESVTEQDSKDSTYSLSSTLTLSKADYEKHKVYACEVTHQGLSSPVTKSFNRGEC heavy 2: QSVEESGGRLVTPGTPLTLTCTASGFTISSYHMIWVRQAPGEGLEWIGDIYGGTATTDYASWAKGRFTISKTSTTVDLKMTSLTTEDTATYFCARARYSGGSYANYVFNLWGQGTLVTVSSASTKGPSVFPLAPSSKSTSGGTAALGCLVKDYFPEPVTVSWNSGALTSGVHTFPAVLQSSGLYSLSSVVTVPSSSLGTQTYICNVNHKPSNTKVDKRVEPKSCDKTHTCPPCPAPEFEGGPSVFLFPPKPKDTLMISRTPEVTCVVVAVSHEDPEVKFNWYVDGVEVHNAKTKPREEQYNSTYRVVSVLTVLHQDWLNGKEYKCKVSNKALPAPIEKTISKAKGQPREPQVYTLPPSREEMTKNQVSLTCLVKGFYPSDIAVEWESNGQPENNYKTTPPVLDSDGSFFLYSRLTVDKSRWQQGNVFSCSVMHEALHNHYTQKSLSLSPGK light 2: DIVMTQTPASVEAAVGGTVTIKCQASQSISSYLAWYQQKPGQPPKLLIYRTSTLESGVPSRFKGSGSGTEFTLTISDLESADAATYYCQGYDWSSSNRYDNTFGGGTEVVVKRTVAAPSVFIFPPSDEQLKSGTASVVCLLNNFYPREAKVQWKVDNALQSGNSQESVTEQDSKDSTYSLSSTLTLSKADYEKHKVYACEVTHQGLSSPVTKSFNRGEC |
| – | – | – | – | – | – | ~100 | ~100 | CD40-001-FEALxCD137-004-FEAR (bispecific antibody, human IgG1, kappa) heavy 1: EVQLQQSGPDLVKPGASVKISCKTSGYTFTEYIMHWVKQSHGKSLEWIGGIIPNNGGTSYNQKFKDKATMTVDKSSSTGYMELRSLTSEDSAVYYCTRREVYGRNYYALDYWGQGTLVTVSSASTKGPSVFPLAPSSKSTSGGTAALGCLVKDYFPEPVTVSWNSGALTSGVHTFPAVLQSSGLYSLSSVVTVPSSSLGTQTYICNVNHKPSNTKVDKRVEPKSCDKTHTCPPCPAPEFEGGPSVFLFPPKPKDTLMISRTPEVTCVVVAVSHEDPEVKFNWYVDGVEVHNAKTKPREEQYNSTYRVVSVLTVLHQDWLNGKEYKCKVSNKALPAPIEKTISKAKGQPREPQVYTLPPSREEMTKNQVSLTCLVKGFYPSDIAVEWESNGQPENNYKTTPPVLDSDGSFLLYSKLTVDKSRWQQGNVFSCSVMHEALHNHYTQKSLSLSPGK light 1: DIQMTQTTSSLSASLGDRVTITCSASQGINNYLNWYQQKPDGTVKLLIYYTSSLHSGVPSRFSGSGSGTDYSLTISNLEPEDIATYYCQQYSNLPYTFGGGTKLEIKRTVAAPSVFIFPPSDEQLKSGTASVVCLLNNFYPREAKVQWKVDNALQSGNSQESVTEQDSKDSTYSLSSTLTLSKADYEKHKVYACEVTHQGLSSPVTKSFNRGEC heavy 2: QSLEESGGRLVTPGTPLTLTCTASGFSLSRYDMSWVRQAPGKGLEYIGVISSSGGTNYANWAKGRFTISKTSTTVDLKITSPTTEDTATYFCAREGDYWDFNLWGPGTLVTVSSASTKGPSVFPLAPSSKSTSGGTAALGCLVKDYFPEPVTVSWNSGALTSGVHTFPAVLQSSGLYSLSSVVTVPSSSLGTQTYICNVNHKPSNTKVDKRVEPKSCDKTHTCPPCPAPEFEGGPSVFLFPPKPKDTLMISRTPEVTCVVVAVSHEDPEVKFNWYVDGVEVHNAKTKPREEQYNSTYRVVSVLTVLHQDWLNGKEYKCKVSNKALPAPIEKTISKAKGQPREPQVYTLPPSREEMTKNQVSLTCLVKGFYPSDIAVEWESNGQPENNYKTTPPVLDSDGSFFLYSRLTVDKSRWQQGNVFSCSVMHEALHNHYTQKSLSLSPGK light 2: AQVLTQTPSSVSAAVGGTVTINCQASQSISNLLAWYQQKPGQPPKLLIYGASTLASGVPSRFSGSGSGTEFTLTISDLESDDAATYYCAGGFPGLDTVAAFGGGTEAVVTRTVAAPSVFIFPPSDEQLKSGTASVVCLLNNFYPREAKVQWKVDNALQSGNSQESVTEQDSKDSTYSLSSTLTLSKADYEKHKVYACEVTHQGLSSPVTKSFNRGEC |
